Measurements as given in patent US20190359704A1 (Chugai, published 2019).
Where a chain is given by its changes, count along the chain named.

Assays:
[1] = target: T1, membrane-type human IL-6R expressed on cells (human, UniProt P08887 20-468); test: flow cytometry, BaF/hIL-6R cells, secondary antibody against the constant region, with or without 100 µM kynurenine
T1 construct: These are Ba/F3 cells (BaF/hIL-6R, WO2012/073992) or CHO cells expressing human IL-6 receptor; also called hIL-6R expressed on cell membrane; cell-membrane hIL-6R
T1 sequence: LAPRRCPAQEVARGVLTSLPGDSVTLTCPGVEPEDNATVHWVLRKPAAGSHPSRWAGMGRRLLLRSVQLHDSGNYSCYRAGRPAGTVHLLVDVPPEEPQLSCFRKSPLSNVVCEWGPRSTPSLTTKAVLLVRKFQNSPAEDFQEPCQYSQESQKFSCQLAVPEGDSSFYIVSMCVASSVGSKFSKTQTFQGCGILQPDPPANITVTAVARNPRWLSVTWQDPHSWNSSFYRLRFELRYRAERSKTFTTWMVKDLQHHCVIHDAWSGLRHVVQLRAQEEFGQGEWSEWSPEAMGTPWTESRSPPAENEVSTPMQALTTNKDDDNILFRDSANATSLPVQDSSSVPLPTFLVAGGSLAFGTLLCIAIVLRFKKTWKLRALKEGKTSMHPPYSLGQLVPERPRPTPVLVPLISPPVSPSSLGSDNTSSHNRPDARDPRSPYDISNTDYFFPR
Method: An appropriate number of BaF/hIL-6R cells were prepared and blocked with PBS containing 2% FBS on ice for one hour or more. […] In this step, the antibodies were contacted with cell-membrane hIL-6R on ice for 30 minutes. […] Then, in the presence or absence of kynurenine, the complex was contacted with a secondary antibody (Beckman Coulter IM1627) that recognizes the antibody constant region. After 30 minutes of incubation with the antibody on ice, the cells were again washed with Wash Buffer and then re-suspended in PBS/2% FBS.

[2] = target: T2, human IL-6 receptor (soluble hIL-6R) (human, UniProt P08887 20-357, limits assumed, biotin-labeled in the ELISA experiments (sites not given)); test: SPR Biacore T200, IL-6R immobilised on CM5, antibody analyte in a concentration series, 1 mM ATP, 25 C; KD from plot of equilibrium value against antibody concentration; SPR, IL-6R on the chip, antibody concentration series, 1 mM ATP, 25 C
T2 construct: also called biotin-labeled hIL-6R
T2 sequence: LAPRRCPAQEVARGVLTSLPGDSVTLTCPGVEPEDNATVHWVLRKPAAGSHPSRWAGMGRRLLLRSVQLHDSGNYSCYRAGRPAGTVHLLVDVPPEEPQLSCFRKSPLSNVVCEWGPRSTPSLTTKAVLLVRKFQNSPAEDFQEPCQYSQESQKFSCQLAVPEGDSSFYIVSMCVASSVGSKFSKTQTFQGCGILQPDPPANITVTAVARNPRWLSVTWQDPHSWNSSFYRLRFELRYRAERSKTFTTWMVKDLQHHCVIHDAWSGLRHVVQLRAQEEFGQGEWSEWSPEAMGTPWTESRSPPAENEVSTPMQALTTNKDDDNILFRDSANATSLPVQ
Method: The running buffer was used: 20 mmol/1 ACES, 150 mmol/l NaCl, 0.05% (w/v) Tween20, pH 7.4. Assay was carried out at 25° C. […] For dilution of the antibodies, the running buffer or the running buffer containing any one of ATP, ADP, AMP, cAMP, and adenosine (ADO) were used. The final concentration of each small molecule and the final concentration of each antibody were adjusted to 1 mM and 1 μM, respectively. Meanwhile, under the 1 mM ATP condition, assay was carried out with a series of stepwise antibody concentrations. The dissociation constant KD (mol/L) of each clone for IL-6R was calculated from a plot of equilibrium value against antibody concentration. The parameters were calculated using the Biacore T200 Evaluation Software (GE Healthcare).

[3] = target: T2, human IL-6 receptor (soluble hIL-6R); test: ELISA, biotin-labeled hIL-6R on streptavidin plate, absorbance 450 nm; seven conditions of Table 18
human serum albumin = target: T3, human serum albumin (human, UniProt P02768 25-609, biotin-labeled (sites not given)); test: ELISA, biotin-labeled HSA on streptavidin plate, absorbance 450 nm; nine small-molecule conditions of Table 3
T3 construct: also called HSA; biotin-labeled HSA

human IL-6 [4] = target: T4, human IL-6 (human, biotin-labeled in the ELISA experiments (sites not given)); test: SPR (Biacore T200), A11 immobilised on CM5, 1 µmol/L IL-6 as analyte for 60 s, 25 °C, kynurenine concentration varied (axis in µmol/L)
T4 construct: ELISA used biotin-labeled human IL-6; SPR used human IL-6 from Kamakura Techno-Science, Inc; also called biotin-labeled human IL-6
Method: The running buffer used was 10 mmol/1 ACES, 150 mmol/l NaCl, 0.05% (w/v) Tween20, pH 7.4. […] All was immobilized onto sensor chip CM5 by amine coupling, and as an analyte IL-6 was diluted to 1 μmol/l with 10 mmol/1 ACES, 150 mmol/l NaCl, 0.05% (w/v) Tween20, pH 7.4 containing kynurenine at various concentrations, and allowed to interact for 60 seconds to observe changes in the amount of binding.

human IL-6 [5] = target: T4, human IL-6; test: SPR Biacore T200, A11 captured on protein A/G CM5 chip, human IL-6 analyte, 37 C, running buffer with 100 µmol/l kynurenine; SPR kinetics, A11 captured on the chip, IL-6 analyte, 100 µmol/l kynurenine
Method: Sensor chip CM5 (GE Healthcare) was immobilized with an appropriate amount of protein A/G (Invitrogen) by amine coupling. Antibodies of interest were captured by the chip to allow interaction to IL-6 as an antigen. The two types of running buffers used were 10 mmol/1 ACES, 150 mmol/l NaCl, 0.05% (w/v) Tween20, 100 μmol/l kynurenine, pH 7.4, and 10 mmol/1 ACES, 150 mmol/l NaCl, 0.05% (w/v) Tween20, pH 7.4. The interaction with IL-6 as an antigen was assessed at 37° C. The buffer used to dilute IL-6 was the same running buffer as described above.
Then, the running buffer was injected at a flow rate of 5 μl/min for three minutes. After observation of human IL-6 dissociation from the antibody, 10 mmol/l glycine-HCl (pH 1.5) was injected at a flow rate of 30 μl/min for 30 seconds to regenerate the sensor chip. […] Each parameter was calculated using the Biacore T200 Evaluation Software (GE Healthcare).

[6] = target: T2, human IL-6 receptor (soluble hIL-6R); test: SPR Biacore T200, antibody captured on protein A CM5 chip, IL-6R analyte, 25 C, with 100 µmol/l kynurenine; SPR, antibody captured on the chip, IL-6R as analyte, 100 µmol/l kynurenine
Method: Each parameter was calculated using the Biacore T200 Evaluation Software (GE Healthcare).

B1: MRA (antibody, human IgG1, kappa, V domains shown)
VH: QVQLQESGPGLVRPSQTLSLTCTVSGYSITSDHAWSWVRQPPGRGLEWIGYISYSGITTYNPSLKSRVTMLRDTSKNQFSLRLSSVTAADTAVYYCARSLARTTAMDYWGQGSLVTVSS
VL: DIQMTQSPSSLSASVGDRVTITCRASQDISSYLNWYQQKPGKAPKLLIYYTSRLHSGVPSRFSGSGSGTDFTFTISSLQPEDIATYYCQQGNTLPYTFGQGTKVEIKR
notes: also called known anti-human IL-6R antibody MRA; control antibody MRA
binding result [1]: binds

B2: 6RAD2C1-4_001 (antibody, human IgG1, kappa, V domains shown)
VH: EVQLVESGGDLVKPGGGLRLSCAASGFTFSGHTMNWVRQAPGKGLEWVSSISSRSNYIYYADSVKGRFTISRDNAKNSLYLQMNSLRAEDTAVYYCARYGRLHDRNWVFDYWGQGTLVTVSS
VL: QSALTQPPSASGSPGQTVTISCTGTSTDVGDYNYVSWYQQHPGKAPKLMIYQVSKKPSGVPDRFSGSKSGNTASLTVSGLQAEDEADYFCSSRSYGAGVVFGGGTKLTVLR
notes: also called 6RAD2C1-4_01
Kd [2]: 300 nM

B3: 6RAD2C1-4_030 (antibody, human IgG1, kappa, V domains shown)
VH: B2 VH with G31S, H32Y, N56G, I58A, Y99F, R101A, H103N, D104T, R105L
VL: B2 VL with S92T, S94T, Y95A, G96N, V100L
notes: also called 6RAD2C1-4_30
Kd [2]: 330 nM

B4: 6RAD2C1-4_076 (antibody, human IgG1, kappa, V domains shown)
VH: B2 VH with H32Y, N56S, Y59D, R101A, H103G, D104Q
VL: QSALTQPPSASGSPGQTVTISCTGTSTDVGDYNYVSWYQQHPGKAPKLMIYQTSKRPSGVPDRFSGSKSGNTASLTVSGLQAEDEADYFCSSRSIKHPVFGGGTKLTVLR
notes: also called 6RAD2C1-4_76
Kd [2]: 250 nM

B5: 6RDL3C1-4_085 (antibody, human IgG1, kappa, V domains shown)
VH: B2 VH
VL: B2 VL
notes: also called 6RDL3C1-4_85
Kd [2]: 390 nM

B6: 6RAD2C1-4_011 (antibody, human IgG1, kappa, V domains shown)
VH: B2 VH with N56S, R101A, H103G, D104Q, R105M
VL: B2 VL with Q52S, K56R, Y95S, G96S, A97M, G98N, V100L
notes: also called 6RAD2C1-4_11
Kd [2]: 230 nM

B7: 6RAD2C1-4_026 (antibody, human IgG1, kappa, V domains shown)
VH: B2 VH with H32Y, I58A, Y59H, H103G
VL: B2 VL with D31A, Q52K, S92L, S94A, Y95A, G96T, A97T, V100L
notes: also called 6RAD2C1-4_26
Kd [2]: 210 nM

B8: 6RAD2C1-4_005 (antibody, human IgG1, kappa, V domains shown)
VH: B2 VH with G31T, N56S, Y59H, Y99F, R101K, H103G, D104E
VL: B2 VL with S92V, Y95D, A97H, V99P, V100M
notes: also called 6RAD2C1-4_05
Kd [2]: 340 nM

B9: GC413 (antibody, human IgG1, kappa, L234A L235A, N297A, V domains shown)
VH: QVQLVQSGAEVKKPGASVKVSCKASGYTFTDYEMHWIRQPPGQGLEWIGAIDPKTGDTAYSQKFKGRVTLTADKSTSTAYMELSSLTSEDTAVYYCTRFYSYTYWGQGTLVTVSS
VL: DIVMTQSPLSLPVTPGEPASISCRSSQSLVHSNRNTYLHWYQQKPGQAPRLLIYKVSNRFSGVPDRFSGSGSGTDFTLKISRVEAEDVGVYYCSQNTHVPPTFGQGTKLEIKR
notes: also called anti-human glypican 3 antibody GC413; anti-human glypican-3 antibody GC413
binding result [3]: no binding (tested: 2.5 µg/ml) | binding result (human serum albumin): no binding (tested: 2.5 µg/ml)

B10: I6NMSC1-3_A11 (antibody, human IgG1, lambda, V domains shown)
VH: QVQLQESGGGVVQPGRSLRLSCAASGFTFSSYAMHWVRQAPGKGLEWVAVISYDGSNKYYADSVKGRFTISRDNSKNTLYLQMNSLRAEDTAVYYCARDAVTGDDWYFDLWGRGTLVTVSS
VL: SYELTQPPSVSVAPGKTARITCGGNNIGSKSVHWYQQKPGQAPVLVVYDDSDRPSGIPERFSGSNSGNTATLTISRVEAGDEADYYCQVWDSSSDHPVFGGGTKLTVLG
KD printed beside the curve of IL-6 binding against the kynurenine concentration (per paragraph 715 the KD of kynurenine for forming the A11/IL-6/kynurenine complex, not the antibody-antigen KD) (human IL-6 [4]): 32 nM | Kd (human IL-6 [5]): 1000 nM

B11: 6RNMSC1-2_F02 (antibody, human IgG1, kappa)
heavy: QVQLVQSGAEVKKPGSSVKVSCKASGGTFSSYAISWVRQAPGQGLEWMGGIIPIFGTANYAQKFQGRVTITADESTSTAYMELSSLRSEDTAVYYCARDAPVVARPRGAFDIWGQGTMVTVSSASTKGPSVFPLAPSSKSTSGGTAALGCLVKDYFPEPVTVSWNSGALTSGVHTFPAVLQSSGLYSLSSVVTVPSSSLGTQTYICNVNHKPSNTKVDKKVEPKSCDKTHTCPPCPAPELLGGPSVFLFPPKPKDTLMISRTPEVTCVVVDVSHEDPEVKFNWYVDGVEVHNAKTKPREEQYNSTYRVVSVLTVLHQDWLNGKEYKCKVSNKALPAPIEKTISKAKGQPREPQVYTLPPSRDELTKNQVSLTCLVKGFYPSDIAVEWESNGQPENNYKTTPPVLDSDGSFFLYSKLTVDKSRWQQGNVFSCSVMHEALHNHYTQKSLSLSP
light: DIVMTQTPLSSPVTLGQPASISCRSSQSLVHSDGNTYLSWLQQRPGQPPRLLIHEISNRFSGVPDRFSGSGAGTNFTLKISRVEAEDVGVYYCMQATQFPRTFGQGTKVEIKRTVAAPSVFIFPPSDEQLKSGTASVVCLLNNFYPREAKVQWKVDNALQSGNSQESVTEQDSKDSTYSLSSTLTLSKADYEKHKVYACEVTHQGLSSPVTKSFNRGEC
notes: also called clone 6RNMSC1-2_F02
Kd [6]: 1500 nM
